Experiments:
[1] = test system: PE-DTA-cleavage site-defensin (P6-P4' NS5A/B site of genotype 1b/1a)
[2] = test system: PE-DTA-mutated cleavage site-defensin

recombinant MBP-scNS3 fusion
in vitro cleavage by NS3 (immunoblot with anti-PE antibodies) [1]: complete cleavage of the chimeric toxin | in vitro cleavage by NS3 (immunoblot with anti-PE antibodies) [2]: resistant to cleavage by NS3

From patent US20130202598
